The text below walks through data of patent publication US20170073659A1 (MEDICINAL BIOCONVERGENCE RESEARCH CENTER, published 2017).

This test concerns the target T1, KRS WT-myc (C-terminus myc tagged KRS wild type) (human, UniProt Q15046 1-597).
T1 construct: Overexpressed in HCT116 cells and tested in lysate; The N-terminus may be cleaved in the cells under starvation; also called KRS-myc
Description: anti-myc immunoprecipitation from starved cells, western blot for syntenin-1 (FIG. 3d). The protocol:
FIG. 3d illustrates results investigating the interaction between KRS and syntenin-1 using D12A mutant. C-terminus myc tagged KRS WT and D12A mutant were transfected and overexpressed in cells, and after 24 hr, the transfectants were incubated in serum starvation media for 1 hr, followed by precipitation using anti-myc antibody, and then KRS-bound syntenin-1 was monitored by western blot (mock: control with empty vector introduced into cells).
The cells were lysed with 50 mM Tris-HCl (pH 7.4) buffer containing 150 mM NaCl, 10 mM NaF, 12 mM beta-glycerophosphate, 1 mM EDTA, 1% NP-40, 10% glycerol, and protease inhibiting agent. Then, the supernatant was dissolved in SDS sample buffer, followed by separation using SDS-PAGE. For immunoblotting of endogenous KRS, anti-KRS antibody was used. Antibodies against Hsp90, syntenin-1, GFP, myc, caspase-3, -6, -8, -9, while syntenin-1 were purchased from Santa Cruz, and antibodies against alix were purchased from Cell Signaling. The anti-KRS antibody was manufactured by ordinary procedures in which KRS protein (Genbank Accession No. NP_005539.1) represented by SEQ ID NO: 2 was injected into New Zealand white rabbits to induce immune response and their antibodies were obtained. […]
In general terms: A western blot detects proteins with antibodies after separation by electrophoresis.

T1 sequence (Q15046 whole entry): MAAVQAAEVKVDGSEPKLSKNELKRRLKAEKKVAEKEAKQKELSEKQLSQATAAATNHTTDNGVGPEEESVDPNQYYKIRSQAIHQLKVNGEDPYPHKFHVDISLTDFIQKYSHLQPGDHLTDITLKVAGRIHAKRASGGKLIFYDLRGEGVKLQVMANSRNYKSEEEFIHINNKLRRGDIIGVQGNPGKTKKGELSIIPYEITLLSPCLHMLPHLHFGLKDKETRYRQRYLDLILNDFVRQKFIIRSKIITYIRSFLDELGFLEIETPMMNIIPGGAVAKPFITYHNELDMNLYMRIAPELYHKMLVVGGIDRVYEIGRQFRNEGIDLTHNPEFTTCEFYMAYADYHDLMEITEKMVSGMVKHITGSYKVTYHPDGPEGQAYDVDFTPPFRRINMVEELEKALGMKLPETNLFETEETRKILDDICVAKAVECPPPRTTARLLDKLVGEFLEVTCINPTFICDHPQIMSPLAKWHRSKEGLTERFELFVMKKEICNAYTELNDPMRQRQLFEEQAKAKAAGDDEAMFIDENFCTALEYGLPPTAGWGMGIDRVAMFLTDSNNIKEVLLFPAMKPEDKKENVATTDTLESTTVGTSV

B1: syntenin-1, endogenous in HCT116 cells (other)
chain: SLYPSLEDLKVDKVIQAQTAFSANPANPAILSEASAPIPHDGNLYPRLYPELSQYMGLSLNEEEIRANVAVVSGAPLQGQLVARPSSINYMVAPVTGNDVGIRRAEIKQGIREVILCKDQDGKIGLRLKSIDNGIFVQLVQANSPASLVGLRFGDQVLQINGENCAGWSSDKAHKVLKQAFGEKITMTIRDRPFERTITMHKDSTGHVGFIFKNGKITSIVKDSSAARNGLLTEHNICEINGQNVIGLKDSQIADILSTSGTVVTITIMPAFIFEHIIKRMAPSIMKSLMDHTIPEV
B1: the binding result is on record as “binds”.
